Source: the supplement of paper PMC10201428
± gives the standard deviation of the averaged measurements.

Legend:
[1] = tested on: VchCAST RNA-guided transposition machinery (E. coli BL21(DE3) host, lacZ target); assay: relative integration efficiency (T-RL orientation) vs wild-type transposon end (log2 (normalized fold change)); transposon end mutated: right end (5 bp flank + 75 bp right end); higher = more efficient transposition
Summary of the method: (§1)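 Barcode abundances in input plasmids and in genomic integration junctions were obtained by PCR amplification and Illumina sequencing. These came from E. coli BL21(DE3) co-transformed with a T7-driven effector plasmid and a pUC57 donor carrying 1549 left-end or 1849 right-end transposon variants, then plated with 0.1 mM IPTG at 37°C for 18 h. Relative integration efficiency is the output/input fold change, normalised to reference barcodes and log-transformed.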

[2] = tested on: VchCAST RNA-guided transposition machinery (E. coli BL21(DE3) host, lacZ target); assay: relative integration efficiency (T-LR orientation) vs wild-type transposon end (log2 (normalized fold change)); transposon end mutated: right end (5 bp flank + 75 bp right end); higher = more efficient transposition
Summary of the method: as §1

Sequence | relative integration efficiency (log2) [1] | relative integration efficiency (log2) [2]
ACATTTGTTGATACAACCAGCCCCTGATAATTACACCCAGCCCGTGATAATTATCACACCCAGCCCGTGATATTGCCTCTGATCATAGTCAGACCAACATTGCTACGACCCGTATTCGCACCGACAC | -6.71 ± 0.47 | -4.67 ± 2
ACATTTGTTGATACAACCATAAAATGATAATTACACCCATAAATTTATTATTATCACACCCAATTTAACTATAACGCTCTGATCATAGTCAGACCAACATTGCTACGACCCGTATTCGCACCGACAC | -2.3 ± 0.59 | 1.56 ± 0.26
ACATTGGTTCATACAACCATAAAATGATAATTACACCCATAAATTGATAATTATCACACCCAATTTAACTATAACGCTCTGATCATAGTCAGACCAACATTGCTACGACCCGTATTCGCACCGACAC | -7.42 ± 0.14 | -4.38 ± 1.6
ACATTTGTTGATACACCCATAAATTGATAATTACAACCATAAGTTGATATTTTTCACACCCATAAATTGATATTGCCTCTGATCATAGTCAGACCAACATTGCTACGACCCGTATTCGCACCGACAC | -0.708 ± 0.17 | -0.56 ± 0.069
ACATTTGTTGATACAACCATAAAGTGATATTTACACCCATAAATTGATAATTATCACACCCATAAATTGATATTGCCTCTGATCATAGTCAGACCAACATTGCTACGACCCGTATTCGCACCGACAC | -0.207 ± 0.081 | -0.336 ± 0.44
ACATTTGTTGATACAACCATAAAATGATAATTACACCCATAAATGTATAATTATCACACCCATAAATTGATATTGCCTCTGATCATAGTCAGACCAACATTGCTACGACCCGTATTCGCACCGACAC | -0.553 ± 0.026 | -1.04 ± 0.38
ACATTTGTTGATACAACCATAAAATGATAATTACACCCATAAATGTCGAATTATCACACCCATAAATTGATATTGCCTCTGATCATAGTCAGACCAACATTGCTACGACCCGTATTCGCACCGACAC | -1.83 ± 0.081 | -2.54 ± 0.58
ACATTGGTGGATACAACCATAAAATGATAATTACACCCATAAATTCATCATTATCACACCCAATTTAACTATAACGCTCTGATCATAGTCAGACCAACATTGCTACGACCCGTATTCGCACCGACAC | -7.11 ± 0.38 | -4.79 ± 0.16
ACATTTGTTGATACAACCCTAAAATGATAATTACACCCATAAATTCATAATTATCACCCCCAATTTAACTATAACGCTCTGATCATAGTCAGACCAACATTGCTACGACCCGTATTCGCACCGACAC | -4.15 ± 0.4 | -1.67 ± 0.083
ACATTTGTTGATACAACCATAAAATGATAATTAATAATTATTTATAATCAGCCACCCATAAATTGATAATTATCACACCCATAAATTGATATTGCCTCTGATCATAGTCAGACCAACATTGCTACGA | -3.35 ± 0.33 | -0.898 ± 1.2
ACATTTGTTCATACAACCCTAAAATGATAATTACACCCATAAATGGATAATTATCACCCCCAATTTAACTATAACGCTCTGATCATAGTCAGACCAACATTGCTACGACCCGTATTCGCACCGACAC | -3.89 ± 0.38 | -2.74 ± 0.46
ACATTTGTTGATACAACCATAAAATGATAATTATAATTATCATTTTATGGTTGTCACAACCATAAAATGATAATTACTCTGATCATAGTCAGACCAACATTGCTACGACCCGTATTCGCACCGACAC | -3.2 ± 0.33 | -1.19 ± 0.18
ACATTTGTTGATACAACCATAATATGATAATTACACCCATAATTTGATAATTATCACACCCATAATTTGATATTGCCTCTGATCATAGTCAGACCAACATTGCTACGACCCGTATTCGCACCGACAC | -0.262 ± 0.035 | -0.428 ± 0.015
ACATTTGTTGATACAACCATAAAATGATAATTAATACACCCATAAATTGATAATTATCAACAAACGCCCGGTCGCGGTACTCTGATCATAGTCAGACCAACATTGCTACGACCCGTATTCGCACCGA | -2.6 ± 0.28 | 0.59376 ± 0.00039
ACATTTGTTGATACAACCATAAAATGATAATTAATAATCACCCATAAATTGATAATTATCACACCCATAAATTGATATTGCCTCTGATCATAGTCAGACCAACATTGCTACGACCCGTATTCGCACC | -2.77 ± 0.17 | 0.894 ± 0.13
ACATTTGTTGATACAACCATAAAATGATAATTACACCCTAAAATTGATAATTATCACACCCATAAATTGATATTGCCTCTGATCATAGTCAGACCAACATTGCTACGACCCGTATTCGCACCGACAC | -0.736 ± 0.05 | -1.14 ± 0.11
ACATTTGTTGATACAACCATAAAATGATAATTACACCCATAAATTGATAATTATCACACCCATAAATTGATATTGCCTCTGATAACTTCGTATAATGTATACTATACGAAGTTATTCGCACCGACAC | -1.3 ± 0.39 | 1.63 ± 0.07
ACATTTGTTGATACAACCATATATTGATATCTCCAACCATATATTGATATCTCTCACACCCATAAATTGATATTGCCTCTGATCATAGTCAGACCAACATTGCTACGACCCGTATTCGCACCGACAC | -0.682 ± 0.15 | -0.162 ± 0.005

Sequence | relative integration efficiency (log2) [1] | relative integration efficiency (log2) [2]
ACATTTGCTGATAGAACCATATAATGATAATAACACCAATAAAATGATAATTATCACACCCAATTTAACTATAACGCTCTGATCATAGTCAGACCAACATTGCTACGACCCGTATTCGCACCGACAC | -3.5 ± 0.17 | -2.34 ± 0.35
ACATTTGTTGATACAAGGTAAAAATGATAATTACACCCATAAATTGATAATTATCACACCCATAAATTGATATTGCCTCTGATCATAGTCAGACCAACATTGCTACGACCCGTATTCGCACCGACAC | -2.26 ± 0.11 | -2.67 ± 0.22
ACATTTGTGGATACAACCATAAAACGATAATTACACCCATAAATTCATCATTATCACACCCAATTTAACTATAACGCTCTGATCATAGTCAGACCAACATTGCTACGACCCGTATTCGCACCGACAC | -2.23 ± 0.37 | 1.17 ± 0.22
ACATTTGCTGATAGAACCATTTAATGATAATAACACCAATAAAATGATAATTATCACACCCAATTTAACTATAACGCTCTGATCATAGTCAGACCAACATTGCTACGACCCGTATTCGCACCGACAC | -4.53 ± 0.5 | -2.93 ± 0.82
ACATTTGTTGATACAACCATATATTGATATCTCCAACCATAAGTTGATATTTTTCACAACCATAAAGTGATATTTACTCTGATCATAGTCAGACCAACATTGCTACGACCCGTATTCGCACCGACAC | -0.225 ± 0.017 | -0.0291 ± 0.26
ACATTTGTTGATACAACCATATATTGATATCTCCAACCATAAAATGATAATTATCACAACCATATATTGATATCTCCTCTGATCATAGTCAGACCAACATTGCTACGACCCGTATTCGCACCGACAC | -0.5854 ± 0.0047 | -0.283 ± 0.24
ACATTTGTTGATACAACCATAAAATGATAATTACACCCATAAATTGATAATTATCACACCCATAAATTGATATTGCCTCTGGCGCTCTGTACCCCGCTCGGTCCTCCCGCGCATCGCGCACCGACAC | 0.194 ± 0.14 | -0.0593 ± 0.17
ACTAAAGTTGATACAACCATAAAATGATAATTACACCCATAAATTGATAATTATCACACCCATAAATTGATATTGCCTCTGATCATAGTCAGACCAACATTGCTACGACCCGTATTCGCACCGACAC | -6.65 ± 0.58 | -4.99 ± 1.1
ACATTTGTTGATACAACCATAAAATGATAATTACACCCATAAATTGATAATTACACCCATAAATTGATATTGCCTCTGATCATAGTCAGACCAACATTGCTACGACCCGTATTCGCACCGACACTGA | -0.821 ± 0.28 | 1.39 ± 0.33
ACATTTGTTGATACACCCATAAATTGATAATTACAACCATAAAGTGATATTTATCACAACCATAAAGTGATATTTACTCTGATCATAGTCAGACCAACATTGCTACGACCCGTATTCGCACCGACAC | -0.483 ± 0.29 | -0.828 ± 0.015
ACATTTGTTGATACAACCATATATTGATATCTCCAACCATAAAGTGATATTTATCAGTGGGTATTTAACTATAACGCTCTGATCATAGTCAGACCAACATTGCTACGACCCGTATTCGCACCGACAC | -0.927 ± 0.29 | 2.59 ± 0.059
ACATTTGTTGATACAACCAAAAAATGATAATTACACCCATAAATTGATAATTGTGACACCGAATTTAACTATAACGCTCTGATCATAGTCAGACCAACATTGCTACGACCCGTATTCGCACCGACAC | -1.12 ± 0.18 | 2.44 ± 0.069
ACATTTGTTGATACAACCATAAAATGATAATTACACCCATAAATTGATAATTATCACACCCATAAATGTCGCGGTAAGAGGATCATAGTCAGACCAACATTGCTACGACCCGTATTCGCACCGACAC | -0.671 ± 0.0087 | 2.19 ± 0.15
ACATTTGTTGATACAACCATAAAATGATAATTACACCCATACCGGGATAATTATCACACCCATAAATTGATATTGCCTCTGATCATAGTCAGACCAACATTGCTACGACCCGTATTCGCACCGACAC | -2.211 ± 0.0089 | -2.1 ± 0.086
ACATTTGTTGATACAACCATAAAGTGATATTTACACCCATAAATTGATAATTATCACAACCATAAGTTGATATTTTCTCTGATCATAGTCAGACCAACATTGCTACGACCCGTATTCGCACCGACAC | -0.313 ± 0.23 | -0.245 ± 0.3
ACATTTGTTGATACAACCAATAAATGATAATTACCCCCATAAATTGATAATTGTGACACCGAATTTAACTATAACGCTCTGATCATAGTCAGACCAACATTGCTACGACCCGTATTCGCACCGACAC | -2.18 ± 0.42 | 1.59 ± 0.12
ACATTTGTTGATACAACCATAAAATGATACGTACACCCATAAATTGATAATTATCACACCCATAAATTGATATTGCCTCTGATCATAGTCAGACCAACATTGCTACGACCCGTATTCGCACCGACAC | -0.82 ± 0.068 | -0.504 ± 0.23
